# Assay results reported in patent US20230002458A1 (ALPHABETA, published 2023).
# T1: rh wt Bri2 BRICHOS-mCherry oligomers (human, UniProt A5A6H8 113-231 (Pan troglodytes entry))
# T1 sequence: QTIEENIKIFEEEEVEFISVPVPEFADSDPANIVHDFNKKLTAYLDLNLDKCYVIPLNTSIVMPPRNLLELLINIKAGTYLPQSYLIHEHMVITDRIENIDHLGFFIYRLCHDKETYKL
# Columns and labels:
# [1] = target: T1, rh wt Bri2 BRICHOS-mCherry oligomers; assay: cell-based or functional assay
# [2] = target: the molecule itself; assay: size exclusion chromatography, self-association
Binder,release of wt monomers from oligomers after co-incubation [1],binding result [2]
rh Bri2 BRICHOS R221E monomer (other) QTIEENIKIFEEEEVEFISVPVPEFADSDPANIVHDFNKKLTAYLDLNLDKCYVIPLNTSIVMPPRNLLELLINIKAGTYLPQSYLIHEHMVITDRIENIDHLGFFIYELCHDKETYKL,~2 molar ratio mutant:wt,
"rh wt Bri2 BRICHOS (other, also called Bri2 BRICHOS [Bri2(113-231)]; wt protein) QTIEENIKIFEEEEVEFISVPVPEFADSDPANIVHDFNKKLTAYLDLNLDKCYVIPLNTSIVMPPRNLLELLINIKAGTYLPQSYLIHEHMVITDRIENIDHLGFFIYRLCHDKETYKL",,binds
